Reference: article PMC5423654

Substrate: S
Test: UV-vis quinone reduction, steady-state kinetics
Assay type: biochemical, Staphylococcus aureus
Conditions: pH 8.0; 25.0 °C

B1: S. aureus SQR (sulfide:quinone oxidoreductase) (Staphylococcus aureus subsp. aureus NCTC 8325) (protein)
chain: MNKHYQIVIIGGGTAGVTVASRLLRKNQNLKEKIAIIDPADHHYYQPLWTLVGAGVSSLKSSRKDMESVIPEGANWIKQAVSSFQPENNSVILGDNTVVYYDFLVVAPGLQINWSSIKGLKENIGKNGVCSNYSPDYVNETWNQISNFKQGNAIFTHPNTPIKCGGAPMKIMYLAEDYFRKHKIRSNANVIYATPKDALFDVGKYNKELERIVEERNITVNYNYNLVEIDGDKKVATFEHIKAYDRKTISYDMLHVTPPMGPLDVVKESTLSDSEGWVDVNPTTLQHKSYSNVFALGDASNVPTSKTGAAIRKQAPIVANNLLQVMNNQMLTHHYDGYTSCPIVTGYNRLILAEFDYNKNTKETMPFNQAKERRSMYIFKKDLLPKMYWYGMLKGLI
  Km: 22 ± 7 µM
  Vmax: 0.41 µmol/min/mg
  kcat/Km: 14100 ± 4600 M⁻¹ s⁻¹
